From paper PMC8654288, “Structural basis of DegP protease temperature-dependent activation” (Science Advances, 2021)
Values joined by “and” are separate entries in the source; they are usually repeats but may differ in a detail not shown here. Identical values can stand only once. No end group written: not given here. NO3 = not defined here

B8: DegP PDZ1-PDZ2 domain construct (DegP^261-448) (domain or fragment, E. coli K12, UniProt P0C0V0 287-474, looked up)
chain: KRGELGIMGTELNSELAKAMKVDAQRGAFVSQVLPNSSAAKAGIKAGDVITSLNGKPISSFAALRAQVGTMPVGSKLTLGLLRDGKQVNVNLELQQSSQNQVDSSSIFNGIEGAEMSNKGKDQGVVVNNVKTGTPAAQIGLKKGDVIIGANQQAVKNIAELRKVLDSKPSVLALNIQRGDSTIYLLMQ
notes: DegP protease, E. coli K12, PDZ1-PDZ2 domains, residues 261-448; numbers count on: the mature protein; Isotope-labelled for NMR; also called PDZ1-PDZ2 bidomain; pDS12; source: E. coli BL21 Star (λ DE3), purified (Ni2+ Sepharose, SENP1 cleavage, Superdex 75 Increase SEC); not shown: His6-SUMO, N-terminal, cleaved

How the values were obtained:
[1] = biological target: T1, DegP PDZ1 domain (DegP^261-354) (E. coli K12, UniProt P0C0V0 287-380); assay: BLI; Octet RED96, 25°C; biotinylated PDZ2 on streptavidin biosensors, PDZ1 as analyte; steady-state analysis; 0.1% BSA, 0.05% Tween 20; association 30 s, dissociation 40 s; conditions: both partners purified
T1 construct: DegP protease, E. coli K12, PDZ1 domain, residues 261-354; numbers count on: the mature protein; [U-15N]-labelled when observed in NMR titrations; also called pDS10; source: E. coli BL21 Star (λ DE3), purified (Ni2+ Sepharose, SENP1 cleavage, Superdex 75 Increase SEC); not shown: His6-SUMO, N-terminal, cleaved
T1 sequence (looked up): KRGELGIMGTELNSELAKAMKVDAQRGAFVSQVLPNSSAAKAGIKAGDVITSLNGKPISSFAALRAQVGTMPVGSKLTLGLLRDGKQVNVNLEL

biotinylated PDZ1 domain = biological target: T2, biotinylated PDZ1 domain (E. coli K12, UniProt P0C0V0 287-380, biotin (EZ-Link NHS-PEG4-Biotin, molar ratio 1:1 at pH 6.0 to ensure preferential labeling of the N-terminal α-amino group)); assay: BLI; Octet RED96, 25°C; biotinylated PDZ1 on streptavidin biosensors, PDZ2 as analyte; initial tests; conditions: both partners purified
T2 construct: DegP protease, E. coli K12, PDZ1 domain, residues 261-354; numbers count on: the mature protein; m5 after biotinylation; immobilised on streptavidin biosensors; source: E. coli BL21 Star (λ DE3), purified, then biotinylated (EZ-Link NHS-PEG4-Biotin); not shown: His6-SUMO, N-terminal, cleaved
T2 sequence (looked up): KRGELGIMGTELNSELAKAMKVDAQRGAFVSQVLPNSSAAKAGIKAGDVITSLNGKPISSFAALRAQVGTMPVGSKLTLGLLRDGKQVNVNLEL

[2] = biological target: T3, DegP^S210A,Y444A (E. coli K12), P0C0V0; assay: SEC; full-length DegP^S210A variants alone; 8°C stated for DegP^S210A,Y444A; trimer and hexamer species; conditions: remark: other sources report otherwise
T3 chain: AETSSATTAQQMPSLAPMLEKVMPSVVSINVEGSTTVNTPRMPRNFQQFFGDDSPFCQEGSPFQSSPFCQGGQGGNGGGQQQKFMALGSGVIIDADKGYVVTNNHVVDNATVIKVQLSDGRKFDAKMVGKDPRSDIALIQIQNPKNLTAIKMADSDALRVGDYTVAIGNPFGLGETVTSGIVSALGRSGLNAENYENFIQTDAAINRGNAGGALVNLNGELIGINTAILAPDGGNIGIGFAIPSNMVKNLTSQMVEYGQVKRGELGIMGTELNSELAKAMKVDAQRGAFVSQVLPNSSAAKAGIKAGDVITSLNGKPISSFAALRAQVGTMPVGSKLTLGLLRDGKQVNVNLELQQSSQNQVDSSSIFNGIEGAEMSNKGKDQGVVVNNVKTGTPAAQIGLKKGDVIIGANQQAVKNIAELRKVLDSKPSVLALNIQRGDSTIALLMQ

[3] = biological target: T3, DegP^S210A,Y444A (E. coli K12), P0C0V0; assay: NMR pulsed field gradient diffusion (13C-methyl-filtered); [U-2H, Ile-δ1-13CH3]-DegP samples at 25°C; NMR buffer 25 mM potassium phosphate, 1 mM EDTA, 1 mM TCEP pH 7.0; oligomeric state from viscosity- and temperature-corrected translational diffusion coefficient against a calibration curve; hexamer to trimers; conditions: remark: other sources report otherwise
[4] = biological target: the molecule itself; assay: NMR pulsed field gradient diffusion (13C-methyl-filtered); DegP^S210A,M280I, temperature series (fig. S1, K and L); hexamer to trimers
[5] = biological target: the molecule itself; assay: NMR pulsed field gradient diffusion (13C-methyl-filtered); [U-2H, Ile-δ1-13CH3]-DegP samples at 43° and 50°C; NMR buffer pH 7.0; hexamer to trimers
[6] = biological target: the molecule itself; assay: NMR pulsed field gradient diffusion (13C-methyl-filtered); [U-2H, Ile-δ1-13CH3]-DegP samples at 25°C; NMR buffer 25 mM potassium phosphate, 1 mM EDTA, 1 mM TCEP pH 7.0; oligomeric state from viscosity- and temperature-corrected translational diffusion coefficient against a calibration curve; hexamer to trimers
[7] = biological target: the molecule itself; assay: SEC; full-length DegP^S210A variants alone; 8°C stated for DegP^S210A,Y444A; trimer and hexamer species
[8] = biological target: B8; assay: NMR titration; substrates (p23, β-casein, nonactivating reporter peptide) added to the DegP PDZ domains (fig. S12); β-casein up to half equimolar ratio; conditions: both partners purified
[9] = biological target: the molecule itself; assay: NMR line broadening and peak intensities ([13C,1H] spectra of side chains); [U-13C,15N]-PDZ1-PDZ2 alone at 25° to 50°C; Y444 Cα and ring resonances, M280 ε-methyl open and locked states

B1: biotinylated PDZ2 domain (domain or fragment, E. coli K12, UniProt P0C0V0 385-474, looked up)
chain: QNQVDSSSIFNGIEGAEMSNKGKDQGVVVNNVKTGTPAAQIGLKKGDVIIGANQQAVKNIAELRKVLDSKPSVLALNIQRGDSTIYLLMQ
modifications: biotin (EZ-Link NHS-PEG4-Biotin, molar ratio 1:1 at pH 6.0 to ensure preferential labeling of the N-terminal α-amino group)
notes: DegP protease, E. coli K12, PDZ2 domain, residues 359-448; numbers count on: the mature protein; m6 after biotinylation; immobilised on streptavidin biosensors; source: E. coli BL21 Star (λ DE3), purified, then biotinylated (EZ-Link NHS-PEG4-Biotin); not shown: His6-SUMO, N-terminal, cleaved
Kd [1]: 7.8 ± 0.9 µM

B2: DegP PDZ2 domain (DegP^359-448) (domain or fragment, E. coli K12, UniProt P0C0V0 385-474, looked up)
chain: QNQVDSSSIFNGIEGAEMSNKGKDQGVVVNNVKTGTPAAQIGLKKGDVIIGANQQAVKNIAELRKVLDSKPSVLALNIQRGDSTIYLLMQ
notes: DegP protease, E. coli K12, PDZ2 domain, residues 359-448; numbers count on: the mature protein; [U-15N]-labelled when observed in NMR titrations; also called pDS11; source: E. coli BL21 Star (λ DE3), purified (Ni2+ Sepharose, SENP1 cleavage, Superdex 75 Increase SEC); not shown: His6-SUMO, N-terminal, cleaved
fold weakening of Kd against PDZ1 on biotinylated PDZ2 (biotinylated PDZ1 domain): ~10 fold

B3: DegP^S210A,Y444A, P0C0V0 27-474 (enzyme)
chain: AETSSATTAQQMPSLAPMLEKVMPSVVSINVEGSTTVNTPRMPRNFQQFFGDDSPFCQEGSPFQSSPFCQGGQGGNGGGQQQKFMALGSGVIIDADKGYVVTNNHVVDNATVIKVQLSDGRKFDAKMVGKDPRSDIALIQIQNPKNLTAIKMADSDALRVGDYTVAIGNPFGLGETVTSGIVSALGRSGLNAENYENFIQTDAAINRGNAGGALVNLNGELIGINTAILAPDGGNIGIGFAIPSNMVKNLTSQMVEYGQVKRGELGIMGTELNSELAKAMKVDAQRGAFVSQVLPNSSAAKAGIKAGDVITSLNGKPISSFAALRAQVGTMPVGSKLTLGLLRDGKQVNVNLELQQSSQNQVDSSSIFNGIEGAEMSNKGKDQGVVVNNVKTGTPAAQIGLKKGDVIIGANQQAVKNIAELRKVLDSKPSVLALNIQRGDSTIALLMQ
stoichiometry N [2]: 3 and 6 | stoichiometry N [3]: 3

B4: DegP^S210A,M280I (enzyme, E. coli K12, UniProt P0C0V0 27-474, looked up)
chain: AETSSATTAQQMPSLAPMLEKVMPSVVSINVEGSTTVNTPRMPRNFQQFFGDDSPFCQEGSPFQSSPFCQGGQGGNGGGQQQKFMALGSGVIIDADKGYVVTNNHVVDNATVIKVQLSDGRKFDAKMVGKDPRSDIALIQIQNPKNLTAIKMADSDALRVGDYTVAIGNPFGLGETVTSGIVSALGRSGLNAENYENFIQTDAAINRGNAGGALVNLNGELIGINTAILAPDGGNIGIGFAIPSNMVKNLTSQMVEYGQVKRGELGIMGTELNSELAKAIKVDAQRGAFVSQVLPNSSAAKAGIKAGDVITSLNGKPISSFAALRAQVGTMPVGSKLTLGLLRDGKQVNVNLELQQSSQNQVDSSSIFNGIEGAEMSNKGKDQGVVVNNVKTGTPAAQIGLKKGDVIIGANQQAVKNIAELRKVLDSKPSVLALNIQRGDSTIYLLMQ
notes: numbers count on: the mature protein
binding result [4]: binds

B5: DegP^S210A (full-length DegP, active site serine mutated) (enzyme, E. coli K12, UniProt P0C0V0 27-474, looked up)
chain: AETSSATTAQQMPSLAPMLEKVMPSVVSINVEGSTTVNTPRMPRNFQQFFGDDSPFCQEGSPFQSSPFCQGGQGGNGGGQQQKFMALGSGVIIDADKGYVVTNNHVVDNATVIKVQLSDGRKFDAKMVGKDPRSDIALIQIQNPKNLTAIKMADSDALRVGDYTVAIGNPFGLGETVTSGIVSALGRSGLNAENYENFIQTDAAINRGNAGGALVNLNGELIGINTAILAPDGGNIGIGFAIPSNMVKNLTSQMVEYGQVKRGELGIMGTELNSELAKAMKVDAQRGAFVSQVLPNSSAAKAGIKAGDVITSLNGKPISSFAALRAQVGTMPVGSKLTLGLLRDGKQVNVNLELQQSSQNQVDSSSIFNGIEGAEMSNKGKDQGVVVNNVKTGTPAAQIGLKKGDVIIGANQQAVKNIAELRKVLDSKPSVLALNIQRGDSTIYLLMQ
notes: numbers count on: the mature protein; Isotope-labelled for NMR ([U-2H,15N] or [U-2H, Ile-d1-13CH3]); also called full-length DegP^S210A
stoichiometry N [5]: 3 | stoichiometry N [6]: 6

B6: DegP^S210A,M280A (enzyme, E. coli K12, UniProt P0C0V0 27-474, looked up)
chain: AETSSATTAQQMPSLAPMLEKVMPSVVSINVEGSTTVNTPRMPRNFQQFFGDDSPFCQEGSPFQSSPFCQGGQGGNGGGQQQKFMALGSGVIIDADKGYVVTNNHVVDNATVIKVQLSDGRKFDAKMVGKDPRSDIALIQIQNPKNLTAIKMADSDALRVGDYTVAIGNPFGLGETVTSGIVSALGRSGLNAENYENFIQTDAAINRGNAGGALVNLNGELIGINTAILAPDGGNIGIGFAIPSNMVKNLTSQMVEYGQVKRGELGIMGTELNSELAKAAKVDAQRGAFVSQVLPNSSAAKAGIKAGDVITSLNGKPISSFAALRAQVGTMPVGSKLTLGLLRDGKQVNVNLELQQSSQNQVDSSSIFNGIEGAEMSNKGKDQGVVVNNVKTGTPAAQIGLKKGDVIIGANQQAVKNIAELRKVLDSKPSVLALNIQRGDSTIYLLMQ
notes: as for B4
stoichiometry N [7]: 3 and 6

B7: p23 peptide (Abz-GNWVSAAKFETYR^NO3SKNTQDYGILQI) (peptide)
peptide: Abz-GNWVSAAKFETYR(NO3)SKNTQDYGILQI
modifications: reading uncertain; also: printed as Abz-GNWVSAAKFETYR^NO3^SKNTQDYGILQI
notes: The superscript probably marks a nitrotyrosine quencher at Y12; also called fluorescent p23 peptide; source: synthetic peptide, bought: GenScript
binding result [8]: binds

B8
ratio of open to locked state of M280 at 37°C [9]: 1 | stoichiometry N [9]: 2
